{
  "source": "paper PMC4414246",
  "assay_in_all_cases": "fluorescence polarization",
  "key": {"[1]": {"biological_target": "U1A M51N (UniProt P09012 10-89, M51N)"}, "[2]": {"biological_target": "U1A E19K (UniProt P09012 10-89, E19K)"}, "[3]": {"biological_target": "U1A L49N (UniProt P09012 10-89, L49N)"}, "[4]": {"biological_target": "dK50dM51 (UniProt P09012 10-89, del50-51)"}, "[5]": {"biological_target": "dK50dM51 E19F (UniProt P09012 10-89, E19F;del50-51)"}, "[6]": {"biological_target": "dK50dM51 S46A (UniProt P09012 10-89, S46A;del50-51)"}, "[7]": {"biological_target": "U1A M51A:F56A (UniProt P09012 10-89, M51A;F56A)"}, "[8]": {"biological_target": "U1A E19S:Y13Q (UniProt P09012 10-89, Y13Q;E19S)"}, "[9]": {"biological_target": "U1A E19F:F56A (UniProt P09012 10-89, E19F;F56A)"}, "[10]": {"biological_target": "U1A L49A (UniProt P09012 10-89, L49A)"}, "[11]": {"biological_target": "U1A M51F (UniProt P09012 10-89, M51F)"}, "[12]": {"biological_target": "U1A E19N (UniProt P09012 10-89, E19N)"}, "[13]": {"biological_target": "U1A E19A (UniProt P09012 10-89, E19A)"}, "[14]": {"biological_target": "U1A E19A:N15V (UniProt P09012 10-89, N15V;E19A)"}, "[15]": {"biological_target": "dK50dM51 E19K (UniProt P09012 10-89, E19K;del50-51)"}, "[16]": {"biological_target": "U1A (UniProt P09012 10-89)"}, "[17]": {"biological_target": "dK50dM51 L49A (UniProt P09012 10-89, L49A;del50-51)"}, "[18]": {"biological_target": "U1A E19F:Y13Q (UniProt P09012 10-89, Y13Q;E19F)"}, "[19]": {"biological_target": "U1A S48A (UniProt P09012 10-89, S48A)"}, "[20]": {"biological_target": "U1A L49A:F56A (UniProt P09012 10-89, L49A;F56A)"}, "[21]": {"biological_target": "U1A M51K (UniProt P09012 10-89, M51K)"}, "[22]": {"biological_target": "U1A L49F (UniProt P09012 10-89, L49F)"}, "[23]": {"biological_target": "U1A E19S (UniProt P09012 10-89, E19S)"}, "[24]": {"biological_target": "U1A M51A:Y13Q (UniProt P09012 10-89, Y13Q;M51A)"}},
  "data": [
    {"binder": "GGCAGAUCUGAGCCUGGGAGCUCUCUGCC (structured_RNA)", "note": "[TAR RNA]", "values": [
      {"measurement": "Kd", "setting": "[1]", "value": "13.8 ± 1.6", "unit": "µM"},
      {"measurement": "Kd", "setting": "[2]", "value": "5.9 ± 0.4", "unit": "µM"},
      {"measurement": "Kd", "setting": "[3]", "value": "14.4 ± 2.1", "unit": "µM"},
      {"measurement": "Kd", "setting": "[4]", "value": "15.9 ± 2.3", "unit": "µM"},
      {"measurement": "Kd", "setting": "[5]", "value": "12.6 ± 1.8", "unit": "µM"},
      {"measurement": "Kd", "setting": "[6]", "value": "24.5 ± 6", "unit": "µM"},
      {"measurement": "Kd", "setting": "[7]", "value": "177 ± 98.2", "unit": "µM"},
      {"measurement": "Kd", "setting": "[8]", "value": "10.3 ± 2.8", "unit": "µM"},
      {"measurement": "Kd", "setting": "[9]", "value": "20.9 ± 3.3", "unit": "µM"},
      {"measurement": "Kd", "setting": "[10]", "value": "5.2 ± 0.5", "unit": "µM"},
      {"measurement": "Kd", "setting": "[11]", "value": "16.4 ± 2.3", "unit": "µM"},
      {"measurement": "Kd", "setting": "[12]", "value": "12 ± 0.9", "unit": "µM"},
      {"measurement": "Kd", "setting": "[13]", "value": "5.9 ± 0.8", "unit": "µM"},
      {"measurement": "Kd", "setting": "[14]", "value": "14.2 ± 1.4", "unit": "µM"},
      {"measurement": "Kd", "setting": "[15]", "value": "6.3 ± 1", "unit": "µM"},
      {"measurement": "Kd", "setting": "[16]", "value": "19.1 ± 4.9", "unit": "µM"},
      {"measurement": "Kd", "setting": "[17]", "value": "91.6 ± 39.7", "unit": "µM"},
      {"measurement": "Kd", "setting": "[18]", "value": "58 ± 24.1", "unit": "µM"},
      {"measurement": "Kd", "setting": "[19]", "value": "14.2 ± 1.3", "unit": "µM"},
      {"measurement": "Kd", "setting": "[20]", "value": "123 ± 38.7", "unit": "µM"},
      {"measurement": "Kd", "setting": "[21]", "value": "7.7 ± 0.5", "unit": "µM"},
      {"measurement": "Kd", "setting": "[22]", "value": "24.1 ± 4.3", "unit": "µM"},
      {"measurement": "Kd", "setting": "[23]", "value": "4.1 ± 0.3", "unit": "µM"},
      {"measurement": "Kd", "setting": "[24]", "value": "210 ± 84.3", "unit": "µM"}
    ]}
  ]
}
